Experimental findings from doi:10.1101/2021.05.31.446396 (bioRxiv, 2021) are described below.

Changes are numbered by the printed parent chain. In names and notes the source's numbering stands.

B1: D2 domain of EccCb1 (35-316 residues), wild type (domain or fragment)
chain: NPVPLNELIARDRRQPLRFALGIMDEPRRHLQDVWGVDVSGAGGNIGIGGAPQTGKSTLLQTMVMSAAATHSPRNVQFYCIDLGGGGLIYLENLPHVGGVANRSEPDKVNRVVAEMQAVMRQRETTFKEHRVGSIGMYRQLRDDPSQPVASDPYGDVFLIIDGWPGFVGEFPDLEGQVQDLAAQGLAFGVHVIISTPRWTELKSRVRDYLGTKIEFRLGDVNETQIDRITREIPANRPGRAVSMEKHHLMIGVPRFDGVHSADNLVEAITAGVTQIASQHTE
B2: D2 domain of EccCb1 (35-316 residues), Q87A mutant (domain or fragment)
chain: B1 chain with Q53A
B3: D2 domain of EccCb1 (35-316 residues), K90A mutant (domain or fragment)
chain: B1 chain with K56A
B4: D2 domain of EccCb1 (35-316 residues), S91A mutant (domain or fragment)
chain: B1 chain with S57A
B5: D2 domain of EccCb1 (35-316 residues), T92A mutant (domain or fragment)
chain: B1 chain with T58A
B6: D3 domain of EccCb1 (349-580 residues), wild type (domain or fragment)
chain: EIPIGLRETDLTPAHCHMHTNPHLLIFGAAKSGKTTIAHAIARAICARNSPQQVRFMLADYRSGLLDAVPDTHLLGAGAINRNSASLDEAVQALAVNLKKRLPPTDLTTAQLRSRSWWSGFDVVLLVDDWHMIVGAAGGMPPMAPLAPLLPAAADIGLHIIVTCQMSQAYKATMDKFVGAAFGSGAPTMFLSGEKQEFPSSEFKVKRRPPGQAFLVSPDGKEVIQAPYIEPP

This data set deals with the molecule itself. The data set can be described thus: SEC. A general note: In gel filtration, larger molecules generally elute earlier.
In general, stoichiometry N refers to a count of units in the complex or per binding partner. For B1, the “stoichiometry N” value is 2.
For B2 the value was 2; for B3, 2; for B4, 2.
For B5 the value was 2; for B6, 2.
